Data from patent US20220340894A1 (CDR LIFE, published 2022).
Where a chain is given by its changes, count along the chain named.

How the values were obtained:
[1] = target: T1, HLA-A2/MAGE-A4 complex (HLA-A*02:01 extracellular domain, human β2m, MAGE-A4 peptide 230-239) (human, UniProt P04439 25-299 at identity 0.94); P61769 21-119); assay: direct ELISA, plate coated with HLA-A2/MAGE-A4 complex, OD450 nm (top panel, 'Binding to HLA-A2/MAGE-A4', M0700-M0709)
T1 construct: also called MAGE-A4/HLA-A2 complex; pMHC
Procedure: All available hits were evaluated for their ability to bind MAGE-A4/HLA-A2 complex and a control peptide/HLA-A2 complex in a direct binding ELISA assay. […] Briefly, 96 well ELISA plates were coated with purified human MAGE-A4/HLA-A2 complex or control HLA-A2 complex. Serial dilutions of antibody molecules were added to the plate and detected by an anti-kappa light chain-HRP (Invitrogen) followed by goat anti-rabbit IgG(H+L) HRP (Southern Biotech). […] All tested molecules are rabbit-derived antibodies that are representative of antibodies identified from the nucleic acid libraries described herein.

[2] = target: T1, HLA-A2/MAGE-A4 complex (HLA-A*02:01 …); assay: phage display biopanning and screening of the lambda and optimized kappa libraries

B1: M0705 (Fab, V domains shown)
VH: QQQLVESGGRLVTPGTPLTLTCTASGIDLNSNAMSWVRQGPGKGLEWIGDIWSGGYTDYASWAKGRFTISKTSTTVDLKMTSLTAADTATYFCARDRLAGDGVVDYDLWGQGTLVTVSS
VL: ELDMTQTPASVEVAVGGTVTIKCQASQNIYSNLAWYQQKPGQRPKLLIYGASTLASGVPSRFKGSGSGTEYTLTINGVQAADAATYYCQQGFSSSNVDNVFGGGTEVVVKR
- binding result [1]: binds

B2: M0848 scFv (scFv)
scFv: QEQLVESGGGLVTPGTPLTLTCTVSGFSLSSYAMGWVRQAPGKGLEWIGTINDGGTAFYASWVKGRFTISRTSTTVDLRVTSPTTEDTATYFCARAYGSNGDVYWGYFNLWGQGTLVTVSSGGGGSGGGGSGGGGSGGGGASELDLTQTPASVEVAVGGTVTIKCQASQSIGSYLSWYQQKPGQRPKLLIFRASTLASGVSSRFKGSGSGTQFTLTISGVECADAATYYCQQGYSSTNLDNVFGGGTEVVVK
notes: Rabbit scFv from the biopanning screen
- binding result [2]: binds

B3: M0849 scFv (scFv)
scFv: QEQLEESGGGLVTPGGTLTLTCTVSGFSLSNYAMGWVRQAPGKGLEWIGTINDGGTAFYAKWLKGRFTISRTSTTVDLKITSPTTEDTATYFCARAYGSNGDVYWGYFNLWGQGTLVTISSGGGGSGGGGSGGGGSGGGGASELVMTQTPSSVSEPVGGTVTIKCQASQSIGSNLAWYQQRPGQPPKLLIYSASTLASGVSSRFKGSGSGTESTLTISGVQAADAATYYCQQGYSSSNVDNVFGGGTELEIL
notes: as for B2
- binding result [2]: binds

B4: M0850 scFv (scFv)
scFv: QEQLEESGGGLVTPGTPLTLTCTASGFSLSSYAMIWVRQAPGKGLEWIGTINDGGTAFYANWVKGRFTISRTSTTVDLKMTSPTTEDTATYFCARAYGSNGDVYWGYVNLWGQGTLVTVSSGGGGSGGGGSGGGGSGGGGASELVMTQTPASVSEPVGGTVTIKCQASQSIGSNLAWYQQKPGQPPKLLIYAAANLASGVSSRFKGSRSGTEYTLTISGVQAADAATYYCQQGYSSSNVANVFGGGTELEIL
notes: as for B2
- binding result [2]: binds

B5: M0851 scFv (scFv)
scFv: QEQLEESGGGLVTPGTPLTLTCTASGFSLSSYAMIWVRQAPGKGLEWIGTINDGGTAFYASWVKGRFTISRTSTTVDLKITSPTTEDTATYFCARAYGSNGDVYWGYVNLWGQGTLVTISSGGGGSGGGGSGGGGSGGGGASELVMTQTPSSVSAAVGGTVTINCQASQNIGSVFAWYQQKPGQPPKLLIYKASSLASGVPSRFKGSGSGTQFTLTISGVEAADAATYYCQQGASSSNVDNIFGGGTEVVVK
notes: as for B2
- binding result [2]: binds

B6: M0852 scFv (scFv)
scFv: QQQLEESGGGLVTPGTPLTLTCTVSGFSLSNYAMGWVRQAPGKGLEWIGTINDGGTAFYANWLKGRFTISRTSTTVDLKITSPTTEDTATYFCARAYGSNGDVYWGYFNLWGQGTLVTVSSGGGGSGGGGSGGGGSGGGGASELVMTQTASPVSAAVGGTVTINCQASQSISSRSLSWYQQKPGQPPKLLIYEASKLASGVPSRFSGSGSGTQFTLTISGVQADDAATYYCQQGYSSSNVDNVFGGGTEVVVK
notes: as for B2
- binding result [2]: binds

B7: M0853 scFv (scFv)
scFv: QQQLVESGGGLVTPGTPLTLTCTVSGFSLSNYAMGWVRQAPGKGLEWIGTINDGGTAFYANWLKGRFTISRTSTTVDLKITSPTTEDTATYFCARAYGSNGDVYWGYFNLWGQGTLVTVSSGGGGSGGGGSGGGGSGGGGASELVMTQTASPVSAAVGGTVTINCQASQSISSRSLSWYQQKPGQPPKLLIYEASKLASGVPSRFSGSGSGTQFTLTISGVQADDAATYYCQQGYSSSNVDNFGGGTEVVVK
notes: as for B2
- binding result [2]: binds

B8: M0854 scFv (scFv)
scFv: QSVKESWGRLVTPGGSLTLTCTVSGIDLNNYAMGWVRQAPGKGLEWIGTINNDGATYYPSWARGRFTISKTSTTVDLKITSPTTEDTATYFCARTYGSNGDVYWGYFNLWGQGTLVTVSSGGGGSGGGGSGGGGSGGGGASALELTQTPASVEVAVGGTVTINCQASQSIGGALNWYQQKSGQPPKLLIYLASTLASGVSSRFKGSGSGTQFTLTISGVEAADAATYYCQQGYSASNIDNAFGGGTEVVVK
notes: as for B2
- binding result [2]: binds

B9: M0855 scFv (scFv)
scFv: QQQLEESGGGLVTPGTPLTLTCTVSGIDLSSYAMGWVRQAPGKGLEWIGTINDGGSAFYASWVKGRFTISRTSTTVDLKITSPTAEDTATYFCAKTYGTNGDVYWGYFNLWGQGTLVTISSGGGGSGGGGSGGGGSGGGGASELVMTQTPASVSEPVGGTVTIKCQASQSIGSNLAWYQQKPGQPPKLLIYYESILASGVPSRFSGSGSGTEYTLTISGAQADDAATYYCQQGYSSSNIDNAFGGGTEVVVK
notes: as for B2
- binding result [2]: binds

B10: M0856 scFv (scFv)
scFv: B9 scFv with D240L
notes: as for B2
- binding result [2]: binds

B11: M0857 scFv (scFv)
scFv: QQQLVESGGRLVTPGTPLTLTCTASGIDLNSNAMSWVRQGPGKGLEWIGDIWSGGYTDYASWAKGRFTISKTSTTVDLKMTSLTAADTATYFCARDRLAGDGVVDYDLWGQGTLVTISSGGGGSGGGGSGGGGSGGGGASELDMTQTPASVEVAVGGTVTIKCQASQNIYSNLAWYQQKPGQRPKLLIYGASTLASGVPSRFKGSGSGTEYTLTINGVQAADAATYYCQQGFSSSNVDNVFGGGTEVVVK
notes: as for B2
- binding result [2]: binds

B12: M0859 scFv (scFv)
scFv: QSVKESGGRLVTPGTPLTLTCTVSGFSLSNYAMSWVRQAPGKGLEYIGIVSSGGTTYYASWAKGRFTISKTSTTVDLKITSPTTEDTATYFCAKDLYYGPTTYSAFNLWGQGTLVTISSGGGGSGGGGSGGGGSGGGGASELVLTQPQSVSGSLGQTVSISCKRARDNIEDYYVHWYQQHPGKTPTIVIHKDDQRPSGVPDRFSGSIDSTSNSASLTITGLLAEDEADYFCQSFDNDASPVFGGGTQLTVTG
notes: as for B2
- binding result [2]: binds

B13: M0858 scFv (scFv)
scFv: B12 scFv with K4E, I117V, D167N, K183R, T184S, D237N, S239N
notes: as for B2
- binding result [2]: binds

B14: M0860 scFv (scFv)
scFv: B12 scFv with H180Y, H190Y, D237N, S239N, P240V
notes: as for B2
- binding result [2]: binds

B15: M0861 scFv (scFv)
scFv: QSVKESGGRLVTPGTPLTLTCTVSGFSLSNYAMSWVRQAPGKGLEYIGIVSSGGTTYYASWAKGRFTISKTSTTVDLKITSPTTEDTATYFCAKDLYYGPTTYSAFNLWGQGTLVTISSGGGGSGGGGSGGGGSGGGGASELVLTQPASVQVNLGQTVSLTCTADTLSRSYASWYQLKPGQAPVLLIYRDTSRPSGVPDRFSGSSSGNTATLTISGAQAGDEGDYVCATSDGSGSNFQLFGGGTQLTVTG
notes: as for B2
- binding result [2]: binds

B16: M0862 scFv (scFv)
scFv: PEQLMESGGGLVTPGGVLTLTCTASGFSFSSYGVNWVRQAPGKGLEWIGFIFGDGTTYYANWAKGRFTISKTSTTVDLKMTSPTTEDTATYFCARDGYGGYDYIINLWGQGTLVTVSSGGGGSGGGGSGGGGSGGGGASAQVLTQTPASVSAAVGGTVSISCQSSQSVVNNNWLAWYQQKPGQPPKLLIYKASTLESGVPSRFKGSGSGTQFTLTISGVQADDAATYYCLGEFSCSSADCHAFGGGTELEIL
notes: as for B2
- binding result [2]: binds

B17: M0863 scFv (scFv)
scFv: PEQLMESGGGLVTPGGVLTLTCTASGFSFSSYGVNWVRQAPGKGLEWIGFIFGDGTTYYANWAKGRFTISKTSTTVDLKMTSPTTEDTATYFCARDGYGGYDYIINLWGQGTLVTVSSGGGGSGGGGSGGGGSGGGGASAQVLTQTPASVSAAVGGTVSISCQSSQSVVNNNWLAWYQQKPGQPPKLLIYKASTLESGVPSRFKGSGSGTQFTLTISGVQADDAATYYCQGAYSGNIYYNAFGGGTEVVVK
notes: as for B2
- binding result [2]: binds

B18: M0864 scFv (scFv)
scFv: QSVKESGGGLVTPGTPLTLTCTVSGFSLSTYAISWVRQAPGKGLEWIGFIDTVDSAYYASWAKGRFTISKTSSTTVDLKMTSPTTEDTATYFCAKLRYGDYGDYTLWGQGTLVTVSSGGGGSGGGGSGGGGSGGGGASELVMTQTPSPVSGAVGGTVTIKCQASQNIYSYLAWYQQKPGQPPKLLIYKASTLASGVPSRVKGSGSGTEYTLTISGVQAADAATYYCQCTYYDSNTFGGGTEVVVK
notes: as for B2
- binding result [2]: binds

B19: M0865 scFv (scFv)
scFv: PAALMESGGRLVTPGTPLTLTCTVSGIDLSTFAMTWVRQAPGKGLEWLGIINTGGSAYYTSWAKGRFTISRTSTTVDLKITSPTTEDTATYFCARGDWSSATDLWGQGTLVTISSGGGGSGGGGSGGGGSGGGGASDPDMTQTPSSVSAAVGGTVTINCQASQSVYDNKVLAWYRQKPGQPPKLLIYKASTLASGVPSRFKGRGSGTQFTLTISGVQADDAATYYCLGEFSCSSADCHAFGGGTELEIL
notes: as for B2
- binding result [2]: binds

B20: M0866 scFv (scFv)
scFv: QSVKESGGRLVTPGTPLTLTCTASGFTISSSAISWVRQAPGKGLEYIGIIRSGGTTDYASWAKGRFAISKTSTTVDLKITSPTTEDTATYFCARDPPYITSTYFDLWGQGTLVTVSSGGGGSGGGGSGGGGSGGGGASELVLTQPQSVSGSLGQTVSISCKRARDSVESYDVHWYQQHPGKTPTIVIYKDDQRPSGVPDRFSGSIDSTSNSASLTITGLLAEDEADYFCQSFDGDAVVFGGGTQLTVTG
notes: as for B2
- binding result [2]: binds
